Consider four molecules from patent US20150218538A1 (UNIVERSITY OF NORTH CAROLINA AT CHAPEL HILL, published 2015).

Ends that are not written are not given here.

In test [1] the target is T1, Gαq activated with aluminum fluoride (Gαq-GDP plus aluminum fluoride) (UniProt P50148 35-359).
T1 sequence (looked up): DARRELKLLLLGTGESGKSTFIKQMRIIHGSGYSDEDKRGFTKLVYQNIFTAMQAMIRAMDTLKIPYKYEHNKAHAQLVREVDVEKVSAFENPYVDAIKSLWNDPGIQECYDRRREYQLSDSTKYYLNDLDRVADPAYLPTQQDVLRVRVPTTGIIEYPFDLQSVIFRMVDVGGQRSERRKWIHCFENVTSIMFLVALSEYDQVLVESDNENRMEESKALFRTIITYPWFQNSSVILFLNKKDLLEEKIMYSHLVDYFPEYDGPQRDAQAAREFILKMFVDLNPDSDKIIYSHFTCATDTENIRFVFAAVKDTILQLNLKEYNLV
Kind of test: cell-based or functional assay.

The target of test [2] is chimeric form of Gαq (Gαq/i), activated with aluminum fluoride. Kind of test: fluorescence polarization in 384-well plates; 30 µM unlabeled 27-mer, 200 nM TAMRA-27-mer, 1.5 µM Gαq/i with aluminum fluoride; competitor: TAMRA-27-mer. A general note: Fluorescence polarisation rises when a labelled molecule tumbles more slowly, as on binding a larger partner.
Test [3] addresses T1, Gαq activated with aluminum fluoride …. Briefly: fluorescence polarization; Gαq activated with aluminum fluoride titrated into TAMRA-labeled peptide.
Excerpt: (§1) Quantification of Gαq binding to peptides corresponding to the HTH of PLβ3. […] KD and IC₅₀ values were derived from three independent experiments.
The target is the same in test [4]. Kind of test: fluorescence polarization competition; unlabeled PLC-β3 added to labeled 25-mer (400 nM) and Gαq (4 µM); competitor: TAMRA-25-mer.
Excerpt: as §1

For the molecule “peptide corresponding to the HTH of PLC-β3 and containing an I860A substitution (from UniProt Q01970 852-878)”, the phospholipase activity of PLC-β3 activated by Gαq in lipid vesicles (IC50) in test [1] amounted to 100 nM.
For “unlabeled 27-mer (from UniProt Q01970 852-878) (peptide)”, the percent decrease in fluorescence polarization in test [2] is 50 percent.

B1: TAMRA-25-mer (25-residue peptide spanning the entire helix-turn-helix of PLC-β3, labeled with TAMRA) (peptide)
peptide: HQDYAEALINPIKHVSLMDQRARQL
modifications: also: TAMRA label, position not given here
notes: also called labeled 25-mer; 25 residue peptide of PLC-β3
Consider B1, for which the “phospholipase activity of PLC-beta3 activated by G-alpha-q in lipid vesicles, as a function of TAMRA-25-mer concentration (IC50)” value in test [1] was roughly 1 microMolar. The dissociation constant Kd in test [3] was roughly 6000 nM.

B2: full-length PLC-β3 (wild type) (enzyme, UniProt Q01970 2-1234, looked up)
chain: AGAQPGVHALQLEPPTVVETLRRGSKFIKWDEETSSRNLVTLRVDPNGFFLYWTGPNMEVDTLDISSIRDTRTGRYARLPKDPKIREVLGFGGPDARLEEKLMTVVSGPDPVNTVFLNFMAVQDDTAKVWSEELFKLAMNILAQNASRNTFLRKAYTKLKLQVNQDGRIPVKNILKMFSADKKRVETALESCGLKFNRSESIRPDEFSLEIFERFLNKLCLRPDIDKILLEIGAKGKPYLTLEQLMDFINQKQRDPRLNEVLYPPLRPSQARLLIEKYEPNQQFLERDQMSMEGFSRYLGGEENGILPLEALDLSTDMTQPLSAYFINSSHNTYLTAGQLAGTSSVEMYRQALLWGCRCVELDVWKGRPPEEEPFITHGFTMTTEVPLRDVLEAIAETAFKTSPYPVILSFENHVDSAKQQAKMAEYCRSIFGDALLIEPLDKYPLAPGVPLPSPQDLMGRILVKNKKRHRPSAGGPDSAGRKRPLEQSNSALSESSAATEPSSPQLGSPSSDSCPGLSNGEEVGLEKPSLEPQKSLGDEGLNRGPYVLGPADREDEEEDEEEEEQTDPKKPTTDEGTASSEVNATEEMSTLVNYIEPVKFKSFEAARKRNKCFEMSSFVETKAMEQLTKSPMEFVEYNKQQLSRIYPKGTRVDSSNYMPQLFWNVGCQLVALNFQTLDVAMQLNAGVFEYNGRSGYLLKPEFMRRPDKSFDPFTEVIVDGIVANALRVKVISGQFLSDRKVGIYVEVDMFGLPVDTRRKYRTRTSQGNSFNPVWDEEPFDFPKVVLPTLASLRIAAFEEGGKFVGHRILPVSAIRSGYHYVCLRNEANQPLCLPALLIYTEASDYIPDDHQDYAEALINPIKHVSLMDQRARQLAALIGESEAQAGQETCQDTQSQQLGSQPSSNPTPSPLDASPRRPPGPTTSPASTSLSSPGQRDDLIASILSEVAPTPLDELRGHKALVKLRSRQERDLRELRKKHQRKAVTLTRRLLDGLAQAQAEGRCRLRPGALGGAADVEDTKEGEDEAKRYQEFQNRQVQSLLELREAQVDAEAQRRLEHLRQALQRLREVVLDANTTQFKRLKEMNEREKKELQKILDRKRHNSISEAKMRDKHKKEAELTEINRRHITESVNSIRRLEEAQKQRHDRLVAGQQQVLQQLAEEEPKLLAQLAQECQEQRARLPQEIRRSLLGEMPEGLGDGPLVACASNGHAPGSSGHLSGADSESQEENTQL
notes: mature; also called PLC-beta3; unlabeled PLC-β3
Take B2: the IC50 in test [4] was roughly 1000 nM.

What is called Kd is the free concentration of one partner at which half of the binding sites on the other are occupied at equilibrium, for simple one-to-one binding. By IC50 is commonly meant the concentration needed to halve the response being measured.
